Experimental data taken from publication PMC8495968 (2021).
Ends that are not written are not given here. * marks the point of attachment. FITC = O=C1OC2(c3ccc(O)cc3Oc3cc(O)ccc32)c2ccc(NC(=S)*)cc21; Ahx = NCCCCCC(=O)O

Biological target: MCL-1 (Homo sapiens, UniProt Q07820)
Test: fluorescence anisotropy direct titration

MCL-1, sequence (Q07820 whole entry): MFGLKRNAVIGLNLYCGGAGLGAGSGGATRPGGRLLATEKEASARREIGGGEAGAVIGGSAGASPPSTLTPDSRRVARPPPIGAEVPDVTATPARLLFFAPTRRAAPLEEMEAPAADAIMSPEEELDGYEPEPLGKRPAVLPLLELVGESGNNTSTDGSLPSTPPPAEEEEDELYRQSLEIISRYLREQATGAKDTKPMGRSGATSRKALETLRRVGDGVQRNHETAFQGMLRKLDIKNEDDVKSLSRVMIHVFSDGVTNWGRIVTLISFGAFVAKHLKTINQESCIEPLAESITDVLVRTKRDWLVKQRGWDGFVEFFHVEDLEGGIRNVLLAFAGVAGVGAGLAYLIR

- Kd: 204 nM
B1: FITC-Ahx-BIM75–85 75-85 (peptide)
chain: {FITC-Ahx}-TRSPLFIFMRR
